Measured values: article PMC9303552 (Angewandte Chemie (International Ed. in English), 2022)

B1: Tau1-152 (domain or fragment, human, UniProt P10636-8 1-152, looked up)
chain: MAEPRQEFEVMEDHAGTYGLGDRKDQGGYTMHQDQEGDTDAGLKESPLQTPTEDGSEEPGSETSDAKSTPTAEDVTAPLVDEGAPGKQAAAQPHTEIPEGTTAEEAGIGDTPSLEDEAAGHVTQARMVSKSKDGTGSDDKKAKGADGKTKIA
B2: isolated TPR domain of CHIP (domain or fragment, human)
chain: EKSPSAQELKEQGNRLFVGRKYPEAAACYGRAITRNPLVAVYYTNRALCYLKMQQHEQALADCRRALELDGQSVKAHFFLGQCQLEMESYDEAIANLQRAYSLAKEQRLNFGDDIPSALRIAKKKRWNSIEERR
B3: GST-CHIP (carboxyl terminus of Hsp70 interacting protein, full length) (enzyme, human, UniProt Q9UNE7 1-303, looked up)
chain: MKGKEEKEGGARLGAGGGSPEKSPSAQELKEQGNRLFVGRKYPEAAACYGRAITRNPLVAVYYTNRALCYLKMQQHEQALADCRRALELDGQSVKAHFFLGQCQLEMESYDEAIANLQRAYSLAKEQRLNFGDDIPSALRIAKKKRWNSIEERRIHQESELHSYLSRLIAAERERELEECQRNHEGDEDDSHVRAQQACIEAKHDKYMADMDELFSQVDEKRKKRDIPDYLCGKISFELMREPCITPSGITYDRKDIEEHLQRVGHFDPVTRSPLTQEQLIPNLAMKEVIDAFISENGWVEDY

How the values were obtained:
[1] = molecular target: B3; assay: NMR titration
[2] = molecular target: T1, Tau 2N4R isoform (full-length Tau) (human, UniProt P10636-8 1-441); assay: ITC
[3] = molecular target: T1, Tau 2N4R isoform (full-length Tau); assay: NMR titration

## B1
[1]
  binding result: binds

## B2
[2]
  Kd: 360 µM

## B3
[3]
  Kd: 14 µM
